Common to all, as to assay: SPR, calculated KD (Qdat software)
Assay [1] concerns the target C-terminal biotinylated Aβ42 monomers (UniProt P05067).
The target of assay [2] is C-terminal biotinylated Aβ42 ADDLs/globulomers (UniProt P05067).
In assay [3] the target is N-terminal biotinylated Aβ42 monomers (UniProt P05067).
For the next assay, the target named is Aβ42 fibrils (UniProt P05067).
The target of assay [4] is Aβ42 oligomers (ADDLs/globulomers) (UniProt P05067).

pKd: −log10 of the molar value.

Sequence of Aβ42 fibrils (P05067 672-713 limits assumed): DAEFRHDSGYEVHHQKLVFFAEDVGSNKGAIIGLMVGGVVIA
Sequence of C-terminal biotinylated Aβ42 ADDLs/globulomers (P05067 672-713 limits assumed): as above
Sequence of C-terminal biotinylated Aβ42 monomers (P05067 672-713 limits assumed): as above
Sequence of Aβ42 oligomers (ADDLs/globulomers) (P05067 672-713 limits assumed): as above
Sequence of N-terminal biotinylated Aβ42 monomers (P05067 672-713 limits assumed): as above

Usually pKd stands for −log10 of the Kd, conventionally taken in molar units. As for “6E10 (mouse mAb to Aβ amino acids 1-16; BioLegend, San Diego, CA) (antibody)”, the negative logarithm of the Kd (pKd) in assay [1] is 7.33; in assay [2] it was 7.30; in assay [3] it was 6.80; with Aβ42 fibrils, 7.25; in assay [4] it was 7.16.
